Columns and labels:
[1] = biological target: Human PDL1 (human, UniProt Q9NZQ7 19-238); experiment: Biacore; EXP1
[2] = biological target: Cyno PDL1; experiment: Biacore; EXP1
[3] = biological target: XPL2-BC-8F4-hIgG1; experiment: Biacore
[4] = biological target: XPL2-BC-7D3-hIgG1; experiment: Biacore
[5] = biological target: XPL2-BC-8H11-hIgG1; experiment: Biacore
[6] = biological target: XPL2-BC-12A11-hIgG1; experiment: Biacore
[7] = biological target: XPL2-BC-12B7-hIgG1; experiment: Biacore
[8] = biological target: XPL2-BC-7E9-hIgG1; experiment: Biacore
[9] = biological target: XPL2-BC-8G5-hIgG1; experiment: Biacore
[10] = biological target: XPL2-BC-3A9-hIgG1; experiment: Biacore
[11] = biological target: XPL2-BC-7B10-hIgG1; experiment: Biacore
[12] = biological target: XPL2-BC-7D1-hIgG1; experiment: Biacore
[13] = biological target: XPL2-BC-16G11-hIgG1; experiment: Biacore
[14] = biological target: XPL2-BC-13G1-hIgG1; experiment: Biacore
[15] = biological target: XPL2-BC-8H8-hIgG1; experiment: Biacore
[16] = biological target: XPL2-BC-5F1-hIgG1; experiment: Biacore
[17] = biological target: XPL2-BC-12A6-hIgG1; experiment: Biacore
[18] = biological target: XPL2-BC-1G10-hIgG1; experiment: Biacore
[19] = biological target: XPL2-BC-9H4-hIgG1; experiment: Biacore
[20] = biological target: XPL2-BC-12B2-hIgG1; experiment: Biacore
[21] = biological target: XPL2-BC-10H5-hIgG1; experiment: Biacore
[22] = biological target: XPL2-BC-5B6-hIgG1; experiment: Biacore
[23] = biological target: XPL2-BC-1E12-hIgG1; experiment: Biacore
[24] = biological target: XPL2-BC-6H10-hIgG1; experiment: Biacore
[25] = biological target: XPL2-BC-12B9-hIgG1; experiment: Biacore
[26] = biological target: XPL2-BC-5C11-hIgG1; experiment: Biacore
[27] = biological target: XPL2-BC-12B12-hIgG1; experiment: Biacore
[28] = biological target: XPL2-BC-5F2-hIgG1; experiment: Biacore
[29] = biological target: XPL2-BC-8G2-hIgG1; experiment: Biacore
[30] = biological target: human CD28 antigen (human, UniProt P10747 19-152); experiment: Octet; VHVL

B1: XENP 37559 (H1L1) (bispecific antibody)
chain 1: EVQLLESGGGLVQPGGSLRLSCAASGFTFSSYDMSWVRQAPGKRLEWVSTISSGGSFTHYPDSVKGRFTISRDNSKNTLYLQMNSLRAEDTAVYYCVRRSGDWYFDVWGAGTTVTVSSASTKGPSVFPLAPSSKSTSGGTAALGCLVKDYFPEPVTVSWNSGALTSGVHTFPAVLQSSGLYSLSSVVTVPSSSLGTQTYICNVNHKPSDTKVDKKVEPKSCDKTHTCPPCPAPPVAGPSVFLFPPKPKDTLMISRTPEVTCVVVDVKHEDPEVKFNWYVDGVEVHNAKTKPREEEYNSTYRVVSVLTVLHQDWLNGKEYKCKVSNKALPAPIEKTISKAKGQPREPQVYTLPPSREEMTKNQVSLTCDVSGFYPSDIAVEWESDGQPENNYKTTPPVLDSDGSFFLYSKLTVDKSRWEQGDVFSCSVMHEALHNHYTQKSLSLSPGK
chain 2: not shown
chain 3: EIVLTQSPGTLSLSPGERATLSCRVSSSISSSNLHWYQQKPGQSPRPLIYGTSNLASGVPVRFSGSGSGTDYTLTISRLEPEDFAVYYCQQWSSYPLYTFGGGTKVEIKRTVAAPSVFIFPPSDEQLKSGTASVVCLLNNFYPREAKVQWKVDNALQSGNSQESVTEQDSKDSTYSLSSTLTLSKADYEKHKVYACEVTHQGLSSPVTKSFNRGEC
B1 showed a Kd [1] of 2.6 nM and a Kd [2] of 2.2 nM.

B2: PDL2 (ligand)
chain: LFTVTVPKELYIIEHGSNVTLECNFDTGSHVNLGAITASLQKVENDTSPHRERATLLEEQLPLGKASFHIPQVQVRDEGQYQCIIIYGVAWDYKYLTLKVKASYRKINTHILKVPETDEVELTCQATGYPLAEVSWPNVSVPANTSHSRTPEGLYQVTSVLRLKPPPGRNFSCVFWNTHVRELTLASIDLQSQMEPRTHPT
With B2 the Kd [3] was 7.13 nM, the Kd [4] was 1.49 nM and the Kd [5] was 0.525 nM. The Kd [6] was 21.8 nM, the Kd [7] was 8.44 nM and the Kd [8] was 0.25 nM. For the same binder, the Kd [9] was 1.09 nM, the Kd [10] was 192 nM and the Kd [11] was 1.77 nM. It also gave a Kd [12] of 5.66 nM, a Kd [13] of 0.491 nM and a Kd [14] of 5.1 nM. The Kd [15] was 3.75 nM, the Kd [16] was 12.5 nM and the Kd [17] was 303 nM. The Kd [18] was 5.87 nM, the Kd [19] was 73.2 nM and the Kd [20] was 15.1 nM. The Kd [21] was 64.9 nM, the Kd [22] was 0.765 nM and the Kd [23] was 80.7 nM. For the same binder, the Kd [24] was 6.02 nM, the Kd [25] was 5.88 nM and the Kd [26] was 1.77 nM. It also gave a Kd [27] of 73.7 nM, a Kd [28] of 11.6 nM and a Kd [29] of 0.39 nM.

B3: H1.1_L1.71 (antibody, V domains shown)
VH: EVQLLESGGGLVQPGGSLRLSCAASGFTFPSRDMSWVRQAPGKRLEWVSTISSGGSFTHYPDSVKGRFTISRDNSKNTLYLQMNSLRAEDTAVYYCVRRSGDWYFDVWGAGTTVTVSS
VL: EIVLTQSPGTLSLSPGERATLSCRVSSSIQSTNLHWYQQKPGQSPRPLIYGTSTLATGVPVRFSGSGSGTDYTLTISRLEPEDFAVYYCQQWSSYPLYTFGGGTKVEIK
B3 was tested, and the Kd [30] was 96 nM.

B4: H1L1 (antibody, V domains shown)
VH: EVQLLESGGGLVQPGGSLRLSCAASGFTFSSYDMSWVRQAPGKRLEWVSTISSGGSFTHYPDSVKGRFTISRDNSKNTLYLQMNSLRAEDTAVYYCVRRSGDWYFDVWGAGTTVTVSS
VL: EIVLTQSPGTLSLSPGERATLSCRVSSSISSSNLHWYQQKPGQSPRPLIYGTSNLASGVPVRFSGSGSGTDYTLTISRLEPEDFAVYYCQQWSSYPLYTFGGGTKVEIK
B4 was tested, and the Kd [30] was 1000 nM.

B5: H1_L1.71 (antibody, V domains shown)
VH: EVQLLESGGGLVQPGGSLRLSCAASGFTFSSYDMSWVRQAPGKRLEWVSTISSGGSFTHYPDSVKGRFTISRDNSKNTLYLQMNSLRAEDTAVYYCVRRSGDWYFDVWGAGTTVTVSS
VL: EIVLTQSPGTLSLSPGERATLSCRVSSSIQSTNLHWYQQKPGQSPRPLIYGTSTLATGVPVRFSGSGSGTDYTLTISRLEPEDFAVYYCQQWSSYPLYTFGGGTKVEIK
For B5, the Kd [30] was 180 nM.

B6: H1.1_L1 (antibody, V domains shown)
VH: EVQLLESGGGLVQPGGSLRLSCAASGFTFPSRDMSWVRQAPGKRLEWVSTISSGGSFTHYPDSVKGRFTISRDNSKNTLYLQMNSLRAEDTAVYYCVRRSGDWYFDVWGAGTTVTVSS
VL: EIVLTQSPGTLSLSPGERATLSCRVSSSISSSNLHWYQQKPGQSPRPLIYGTSNLASGVPVRFSGSGSGTDYTLTISRLEPEDFAVYYCQQWSSYPLYTFGGGTKVEIK
With B6 the Kd [30] was 600 nM.

Source: US20230383012A1 (published 2023)
